Patent US20170152288A1 (published 2017)

Target: T1, rProtein A Sepharose FF (Staphylococcus aureus, UniProt P38507 37-327, immobilized on Sepharose FF chromatography resin (commercial, GE Healthcare))
T1 construct: all other ligands (L1-L78, A2P, MEP Hypercel) are small molecules; also called rProtA; rProtein A Sepharose 4 FF
Test: batch adsorption in 96-well plates, Langmuir isotherm fit, Bradford assay of supernatant

B1: Bevacizumab (Avastin, F. Hoffmann-La Roche, Switzerland) (antibody, V domains shown)
VH: EVQLVESGGGLVQPGGSLRLSCAASGYTFTNYGMNWVRQAPGKGLEWVGWINTYTGEPTYAADFKRRFTFSLDTSKSTAYLQMNSLRAEDTAVYYCAKYPHYYGSSHWYFDVWGQGTLVTVSS
VL: DIQMTQSPSSLSASVGDRVTITCSASQDISNYLNWYQQKPGKAPKVLIYFTSSLHSGVPSRFSGSGSGTDFTLTISSLQPEDFATYYCQQYSTVPWTFGQGTKVEIK
  Kd: 4.7 µg/mL
